Experiments:
in vivo = experiment: in vivo; design: species or system Sprague-Dawley rat; details: rat
Description: Chromatographic analysis was performed on a Shimadzu Nexera LC-30AD UPLC system, and mass spectrometric detection was performed on an LCMS-8050 triple quadrupole mass spectrometer (Shimadzu Co., Kyoto, Japan) in the positive ESI and MRM mode. […] The gradient elution of the mobile phase consisting of 0.1% formic acid in water (solvent A) and 0.1% formic acid in acetonitrile (solvent B) was performed at a flow rate of 0.3 mL/min as follows (solvent A:solvent B, v/v): maintained at 19.3 for 0.01 min; ramped from 19.3 to 39.6 for 2.49 min; maintained at 39.6 for 0.01 min; ramped from 39.6 to 90 for 2.99 min; reverted to 19.3 for 0.01 min; and maintained for 1.99 min (total run time: 7.5 min). The ion source parameters were set as follows: nebulizing gas flow, 3 L/min; drying gas flow, 10 L/min; heating gas flow, 10 L/min; interface temperature, 300 °C; desolvation temperature, 250 °C; and heating block temperature, 400 °C. […] Rats underwent surgical implantation of a cannula in the femoral artery under anesthesia, as previously described. The LOC was dissolved in phosphate-buffered saline (pH 5.7). […] A blood sample of approximately 0.3 mL was collected via femoral artery cannulation at various time points (0, 1, 3, 5, 10, 20, 30, 60, 90, 120, 180, 240, 360, 480, and 600 min), then collected in heparin pre-treated microcentrifuge tubes. These blood samples were centrifuged at 4000× g for 10 min to obtain plasma and were frozen at −20 °C until analysis. Non-compartmental analysis was performed using Phoenix WinNonlin ver. 3.1 (Certara USA Inc., Princeton, NJ, USA) to estimate the following pharmacokinetic parameters: AUClast; total area under the plasma concentration versus time curve from time zero to time infinity (AUCinf); Cmax; Tmax; t1/2; and MRTinf. Values were obtained directly from the concentration–time plot. All values are reported as the mean ± standard deviation.

[1] = Stability of analytes in rat plasma samples (method validation)
Description: QC samples were prepared using the same process as that used for the calibration standards.
Plasma samples (100 µL) were mixed with 300 µL of 5% formic acid (in water) and vortexed for 5 min. Then, 500 µL acetonitrile of containing 20 ng/mL IS was added to the resultant mixture and vortexed for 5 min. After centrifugation at 14,500× g for 10 min at 4 °C, 800 µL of the supernatant was collected, dried under vacuum using a SpeedVac (Eyela, Tokyo, Japan), reconstituted with 50 μL of methanol, and injected into the LC-MS/MS system.
Using the calibration standard and QC samples, the present LC-MS/MS method was validated in terms of its selectivity, LLOQ, linearity, accuracy, precision, recovery, and stability according to the United States Food and Drug Administration guidelines for bioanalytical method validation [20].
Stability was determined under various analytical handling and storage conditions, such as bench-top, freeze–thaw, post-preparative, and long-term storage, at two QC levels (LQC and HQC).

[2] = in vivo; cited from earlier work

Row | Calculated plasma concentration at 60 min after subcutaneous administration of LOC (in vivo) [ng/mL] | SMILES | Tmax (in vivo; male, Sprague-Dawley, sc) [h] | half-life (in vivo; male, Sprague-Dawley, sc) [min] | level at 1 h (in vivo; male, Sprague-Dawley, sc, 0.122 mg/kg) [ng/mL] | Autosampler stability (percentage of drug remaining), LQC ([1]; rat plasma samples, post-preparative, 3 ng/mL, 10 °C for 24 h in the autosampler, LC-MS/MS, mean ± SD, n = 5) [%] | Autosampler stability (percentage of drug remaining), HQC ([1]; rat plasma samples, post-preparative, 800 ng/mL, 10 °C for 24 h in the autosampler, LC-MS/MS, mean ± SD, n = 5) [%] | Bench-top stability (percentage of drug remaining), LQC ([1]; rat plasma, 3 ng/mL, room temperature for 3 h, LC-MS/MS, mean ± SD, n = 5) [%] | Freeze-thaw stability (percentage of drug remaining), LQC ([1]; rat plasma, 3 ng/mL, three freezing and thawing cycles every 12 h at −20 °C, LC-MS/MS, mean ± SD, n = 5) [%] | Long-term stability (percentage of drug remaining), LQC ([1]; rat plasma, 3 ng/mL, −20 °C for 30 d, LC-MS/MS, mean ± SD, n = 5) [%] | Bench-top stability (percentage of drug remaining), HQC ([1]; rat plasma, 800 ng/mL, room temperature for 3 h, LC-MS/MS, mean ± SD, n = 5) [%] | Freeze-thaw stability (percentage of drug remaining), HQC ([1]; rat plasma, 800 ng/mL, three freezing and thawing cycles every 12 h at −20 °C, LC-MS/MS, mean ± SD, n = 5) [%] | Long-term stability (percentage of drug remaining), HQC ([1]; rat plasma, 800 ng/mL, −20 °C for 30 d, LC-MS/MS, mean ± SD, n = 5) [%] | Recovery values after exposure to different stability conditions ([1]; rat plasma, 3 and 800 ng/mL, range over bench-top, autosampler, freeze-thaw and long-term conditions) | MRTinf in the intravenous group [2] [min]
1 | – | CCCCCCCC/C=C\CCCCCCCC(=O)OC[C@H](NC(=O)[C@H](Cc1c[nH]c2ccccc12)NC(=O)[C@H](Cc1c[nH]cn1)NC(=O)[C@@H]1CCC(=O)N1)C(=O)N[C@@H](Cc1ccc(O)cc1)C(=O)N[C@H](CC(C)C)C(=O)N[C@@H](CC(C)C)C(=O)N[C@@H](CCCNC(=N)N)C(=O)N1CCC[C@H]1C(=O)NCC [LOC] | 5 | 172 ± 66 | 11.7 | 102 ± 9 | 92.7 ±1.2 | 105 ± 7 | 107 ± 4 | 91.2 ± 4.0 | 97.7± 2.0 | 107 ± 4 | 93.4 ± 2.6 | 91.2–107% | –
2 | 1.86 | CCNC(=O)[C@@H]1CCCN1C(=O)[C@H](CCCNC(=N)N)NC(=O)[C@H](CC(C)C)NC(=O)[C@@H](CC(C)C)NC(=O)[C@H](Cc1ccc(O)cc1)NC(=O)[C@H](CO)NC(=O)[C@H](Cc1c[nH]c2ccccc12)NC(=O)[C@H](Cc1c[nH]cn1)NC(=O)[C@@H]1CCC(=O)N1 [Leuprolide, pyroGlu-His-Trp-Ser-Tyr-D-Leu-Leu-Arg-Pro-NHEt, reference compound] | 0.25 | 38.2 ± 4.3 | – | – | – | – | – | – | – | – | – | – | 28.1
